The results in this text go back to PMC9040721.

In test [1] the target is recombinant full-length TRP120, His-tagged (rTRP120-FL) (E. chaffeensis) (UniProt Q2GI62). Put plainly: SPR; Biacore T100, NTA sensor chip; His-tagged TRP120-FL, TRP120-TR or TRX (0.1 uM) immobilised; Fc-tagged Notch-1 LBR as analyte, 2-fold dilutions 800 nM to 25 nM; 25 C; 100 mM sodium phosphate pH 7.4, 400 mM NaCl, 40 uM EDTA; 1:1 Langmuir model. In general terms: In SPR one partner is held on a chip, and binding of the other changes the refractive index at the surface.

In test [2] the target is recombinant TRP120 tandem repeat domain, His-tagged (rTRP120-TR) (E. chaffeensis) (UniProt Q2GI62). Described as above.

“human rNotch-1 Fc Chimera Protein, CF (R&D Systems); Fc-tagged Notch-1 ligand-binding region (LBR) (from UniProt P46531 19-2555) (Fc fusion)”: the dissociation constant (Kd) – broadly, the constant that tells how readily two partners part at equilibrium – in test [1] is 0.1 µM; in test [2], 0.12 µM.
